Measurements from patent publication US20110318339A1 (FABRUS, published 2011).

Legend:
[1] = target: T1, recombinant human DLL4 (Cat# 1506-D4/CF, R&D Systems) (human, UniProt Q9NR61 27-529); assay: ELISA, hDLL4 coated 0.5 ng/ul, Fab 100.00 nM
T1 construct: Bought protein; also called hDLL4; h DLL4
Procedure: (§1) The plate was blocked by adding 1% BSA in Tris-buffered Saline Tween (TBST) and incubating for 1 hour at room temperature followed by washing 2 times with 150 μl TBST. A Fab antibody was serially diluted in 1% BSA in PBS. A 50 μl aliquot of each serial dilution was added, in triplicate, to each well and the plate was incubated for 1 hour at room temperature followed by washing 2 times with TBST. 50 μl of either goat anti-human kappa HRP conjugated secondary antibody (Cat # A7164-1 mL, Sigma-Aldrich) or goat anti-human lambda HRP conjugated secondary antibody (Cat # L1645-1 ml, Sigma-Aldrich), diluted 1:1000 in 1% BSA in PBS, was added to each well and the plate was incubated for 30 minutes at room temperature followed by washing 3 times with 200 μl TBST. Finally, 50 μl TMB one-component reagent (Cat # TMBW-1000-01, BioFax) was added and allowed to develop for 2 minutes at room temperature. The reaction was immediately halted by the addition of 50 μl 0.5M H₂SO₄ and the absorbance at 450 nm was measured using an ELISA plate reader.

[2] = target: T1, recombinant human DLL4 (Cat# …); assay: ELISA, hDLL4 coated 0.5 ng/ul, Fab 3.13 nM
Procedure: as §1

[3] = target: T1, recombinant human DLL4 (Cat# …); assay: ELISA, hDLL4 coated 0.5 ng/ul, Fab 6.25 nM
Procedure: as §1

[4] = target: T1, recombinant human DLL4 (Cat# …); assay: ELISA, hDLL4 coated 0.5 ng/ul, Fab 25.00 nM
Procedure: as §1

[5] = target: T1, recombinant human DLL4 (Cat# …); assay: ELISA, hDLL4 coated 0.5 ng/ul, Fab 1.56 nM
Procedure: as §1

[6] = target: T1, recombinant human DLL4 (Cat# …); assay: ELISA, hDLL4 coated 0.5 ng/ul, Fab 0.78 nM
Procedure: as §1

[7] = target: T1, recombinant human DLL4 (Cat# …); assay: ELISA, hDLL4 coated 0.5 ng/ul, Fab 12.50 nM
Procedure: as §1

[8] = target: T1, recombinant human DLL4 (Cat# …); assay: ELISA, hDLL4 coated 0.5 ng/ul, Fab 50.00 nM
Procedure: as §1

[9] = target: T2, full-length human DLL4 expressed on the surface of CHO cells (human, UniProt Q9NR61 26-685); assay: flow cytometry competition, 250 nM biotinylated Notch-Fc as competitor, Fab 10 nM
T2 construct: also called CHO-DLL4; DLL4-expressing CHO cells
Procedure: (§2) Streptavidin-PE was used as a detection molecule.
(§3) Fab was 5-fold serially diluted in 2% BSA/PBS from a starting concentration of 50 nM. […] PE-labeled streptavidin (Cat# 21627, Pierce-Thermo Scientific) was then added to a final dilution of 1:5 followed by incubation for 10 minutes at room temperature. The cells were then washed twice in 2% BSA/PBS and analyzed by flow cytometry on a BD FACSAria.

[10] = target: T2, full-length human DLL4 expressed on the …; assay: flow cytometry competition, 250 nM biotinylated Notch-Fc as competitor, Fab 50 nM
Procedure: as §2, §3

[11] = target: T2, full-length human DLL4 expressed on the …; assay: flow cytometry competition, 250 nM biotinylated Notch-Fc as competitor, Fab 2 nM
Procedure: as §2, §3

[12] = target: T1, recombinant human DLL4 (Cat# …); assay: ELISA, hDLL4 coated 0.5 ng/ul, Fab 0.63 nM
Procedure: as §1

[13] = target: T3, recombinant mouse DLL4 (Cat# 1389-D4-050/CF, R&D Systems) (mouse, UniProt Q9JI71 28-525); assay: ELISA, mDLL4 coated 0.5 ng/ul, Fab 0.08 nM
T3 construct: Bought protein; also called mDLL4
Procedure: as §1

[14] = target: T3, recombinant mouse DLL4 (Cat# …); assay: ELISA, mDLL4 coated 0.5 ng/ul, Fab 2.50 nM
Procedure: (§4) In this example, an ELISA binding assay was used to assess the dose-dependent binding of Fab antibodies to recombinant human DLL4 and recombinant mouse DLL4.
as §1

[15] = target: T1, recombinant human DLL4 (Cat# …); assay: ELISA, hDLL4 coated 0.5 ng/ul, Fab 0.31 nM
Procedure: as §4, §1

[16] = target: T1, recombinant human DLL4 (Cat# …); assay: ELISA, hDLL4 coated 0.5 ng/ul, Fab 2.50 nM
Procedure: as §4, §1

[17] = target: T3, recombinant mouse DLL4 (Cat# …); assay: ELISA, mDLL4 coated 0.5 ng/ul, Fab 0.31 nM
Procedure: as §1

[18] = target: T3, recombinant mouse DLL4 (Cat# …); assay: ELISA, mDLL4 coated 0.5 ng/ul, Fab 1.25 nM
Procedure: as §4, §1

[19] = target: T1, recombinant human DLL4 (Cat# …); assay: ELISA, hDLL4 coated 0.5 ng/ul, Fab 10.00 nM
Procedure: as §4, §1

[20] = target: T1, recombinant human DLL4 (Cat# …); assay: ELISA, hDLL4 coated 0.5 ng/ul, Fab 1.25 nM
Procedure: as §4, §1

[21] = target: T3, recombinant mouse DLL4 (Cat# …); assay: ELISA, mDLL4 coated 0.5 ng/ul, Fab 10.00 nM
Procedure: as §1

[22] = target: T1, recombinant human DLL4 (Cat# …); assay: ELISA, hDLL4 coated 0.5 ng/ul, Fab 0.16 nM
Procedure: as §4, §1

[23] = target: T1, recombinant human DLL4 (Cat# …); assay: ELISA, hDLL4 coated 0.5 ng/ul, Fab 0.08 nM
Procedure: as §1

[24] = target: T3, recombinant mouse DLL4 (Cat# …); assay: ELISA, mDLL4 coated 0.5 ng/ul, Fab 0.63 nM
Procedure: as §1

[25] = target: T3, recombinant mouse DLL4 (Cat# …); assay: ELISA, mDLL4 coated 0.5 ng/ul, Fab 5.00 nM
Procedure: as §4, §1

[26] = target: T3, recombinant mouse DLL4 (Cat# …); assay: ELISA, mDLL4 coated 0.5 ng/ul, Fab 0.16 nM
Procedure: as §1

[27] = target: T1, recombinant human DLL4 (Cat# …); assay: ELISA, hDLL4 coated 0.5 ng/ul, Fab 5.00 nM
Procedure: as §4, §1

T3 sequence (Q9JI71 28-525 limits assumed): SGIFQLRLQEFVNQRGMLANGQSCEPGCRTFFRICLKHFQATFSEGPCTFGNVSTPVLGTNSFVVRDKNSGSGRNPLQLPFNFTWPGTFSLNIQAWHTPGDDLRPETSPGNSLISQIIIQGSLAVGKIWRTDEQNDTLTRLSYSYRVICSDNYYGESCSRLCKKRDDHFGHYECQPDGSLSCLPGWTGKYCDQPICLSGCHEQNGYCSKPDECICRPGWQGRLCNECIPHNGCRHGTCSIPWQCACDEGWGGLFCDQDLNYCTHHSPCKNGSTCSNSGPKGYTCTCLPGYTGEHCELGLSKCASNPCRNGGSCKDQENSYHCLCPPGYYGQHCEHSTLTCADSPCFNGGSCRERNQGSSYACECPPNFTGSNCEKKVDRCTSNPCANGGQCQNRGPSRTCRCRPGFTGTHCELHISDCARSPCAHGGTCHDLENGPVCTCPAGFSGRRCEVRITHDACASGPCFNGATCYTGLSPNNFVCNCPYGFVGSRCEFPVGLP

| Binder | ELISA absorbance at 450 nm [1] [A450] | ELISA absorbance at 450 nm [2] [A450] | ELISA absorbance at 450 nm [3] [A450] | ELISA absorbance at 450 nm [4] [A450] | ELISA absorbance at 450 nm [5] [A450] | ELISA absorbance at 450 nm [6] [A450] | ELISA absorbance at 450 nm [7] [A450] | ELISA absorbance at 450 nm [8] [A450] | ELISA absorbance at 450 nm [12] [A450] | ELISA absorbance at 450 nm [13] [A450] | ELISA absorbance at 450 nm [14] [A450] | ELISA absorbance at 450 nm [15] [A450] | ELISA absorbance at 450 nm [16] [A450] | ELISA absorbance at 450 nm [17] [A450] | ELISA absorbance at 450 nm [18] [A450] | ELISA absorbance at 450 nm [19] [A450] | ELISA absorbance at 450 nm [20] [A450] | ELISA absorbance at 450 nm [21] [A450] | ELISA absorbance at 450 nm [22] [A450] | ELISA absorbance at 450 nm [23] [A450] | also measured |
| --- | --- | --- | --- | --- | --- | --- | --- | --- | --- | --- | --- | --- | --- | --- | --- | --- | --- | --- | --- | --- | --- |
| Fab VH5-51_IGHD5-18*01>3_IGHJ4*01 G100K/G104T G24T/S28R/G35V (H:KT TRV) & V3-4_IGLJ1*01 M94R/S96M (L:RM) (Fab, V domains shown, Tested as Fab from E. coli (Plasmid A: CH1, His6, Flag; Plasmid E: CL lambda); also called H:KT TRV & L:RM; KT TRV / RM) VH: EVQLVQSGAEVKKPGESLKISCKTSGYRFTSYWIVWVRQMPGKGLEWMGIIYPGDSDTRYSPSFQGQVTISADKSISTAYLQWSSLKASDTAMYYCARRKYSYTYDYFDYWGQGTLVTVSS VL: QTVVTQEPSFSVSPGGTVTLTCGLSSGSVSTSYYPSWYQQTPGQAPRTLIYSTNTRSSGVPDRFSGSILGNKAALTITGAQADDESDYYCVLYRGMGISYVFGTGTKVTVL | 1.07 | 0.167 | 0.229 | 0.421 | 0.148 | 0.145 | 0.294 | 0.661 | – | – | – | – | – | – | – | – | – | – | – | – | – |
| Fab VH5-51_IGHD5-18*01>3_IGHJ4*01 G100K/G104T G24T/S28R/G35V (H:KT TRV) & V3-4_IGLJ1*01 V91L/S96P S52G (L:LP S52G) (Fab, V domains shown, Tested as Fab from E. coli (Plasmid A: CH1, His6, Flag; Plasmid E: CL lambda); also called H:KT TRV & L:LP S52G) VH: EVQLVQSGAEVKKPGESLKISCKTSGYRFTSYWIVWVRQMPGKGLEWMGIIYPGDSDTRYSPSFQGQVTISADKSISTAYLQWSSLKASDTAMYYCARRKYSYTYDYFDYWGQGTLVTVSS VL: QTVVTQEPSFSVSPGGTVTLTCGLSSGSVSTSYYPSWYQQTPGQAPRTLIYGTNTRSSGVPDRFSGSILGNKAALTITGAQADDESDYYCLLYMGPGISYVFGTGTKVTVL | – | – | – | – | – | – | – | – | – | – | – | – | – | – | – | – | – | – | – | – | signal of Notch-Fc bound to CHO-DLL4 (streptavidin-PE) [9]: 190; signal of Notch-Fc bound to CHO-DLL4 (streptavidin-PE) [10]: 105; signal of Notch-Fc bound to CHO-DLL4 (streptavidin-PE) [11]: 250 |
| Fab VH5-51_IGHD5-18*01>3_IGHJ4*01 G100K/G104T S28R (H:KT S28R) & V3-4_IGLJ1*01 (Fab, V domains shown, Tested as Fab from E. coli (Plasmid A: CH1, His6, Flag); Plasmid E: CL lambda; also called H:KT S28R & L:wt) VH: EVQLVQSGAEVKKPGESLKISCKGSGYRFTSYWIGWVRQMPGKGLEWMGIIYPGDSDTRYSPSFQGQVTISADKSISTAYLQWSSLKASDTAMYYCARRKYSYTYDYFDYWGQGTLVTVSS VL: QTVVTQEPSFSVSPGGTVTLTCGLSSGSVSTSYYPSWYQQTPGQAPRTLIYSTNTRSSGVPDRFSGSILGNKAALTITGAQADDESDYYCVLYMGSGISYVFGTGTKVTVL | 0.67 | 0.164 | 0.203 | 0.333 | 0.148 | 0.138 | 0.226 | 0.524 | – | – | – | – | – | – | – | – | – | – | – | – | – |
| Fab VH1-46_IGHD6-6*01_IGHJ1*01 S102A/S103P/S104F/H111F I51V/N52L/S54T/G56H (H:APFF VLTH) & L6_IGKJ1*01 S28N/S30D/S31H (L:NDH) (Fab, V domains shown, Tested as Fab from E. coli (Plasmid A: CH1, His6, Flag; Plasmid C: CL kappa); also called H:APFF VLTH & L:NDH; APFF VLTH / NDH) VH: QVQLVQSGAEVKKPGASVKVSCKASGYTFTSYYMHWVRQAPGQGLEWMGIVLPTGHSTSYAQKFQGRVTMTRDTSTSTVYMELSSLRSEDTAVYYCAREEYAPFSAEYFQFWGQGTLVTVSS VL: EIVLTQSPATLSLSPGERATLSCRASQNVDHYLAWYQQKPGQAPRLLIYDASNRATGIPARFSGSGSGTDFTLTISSLEPEDFAVYYCQQRSNWPPWTFGQGTKVEIKR | – | – | – | – | – | – | – | – | 1.09 | 0.063 | 0.583 | 0.683 | 1.83 | 0.105 | 0.317 | 2.25 | 1.4 | 1.22 | 0.407 | 0.189 | ELISA absorbance at 450 nm [24]: 0.206 A450; ELISA absorbance at 450 nm [25]: 0.833 A450; ELISA absorbance at 450 nm [26]: 0.081 A450; ELISA absorbance at 450 nm [27]: 1.92 A450 |
| Fab VH1-46_IGHD6-6*01_IGHJ1*01 S102A/S103P/S104F/H111F G56H (H:APFF G56H) & L6_IGKJ1*01 (Fab, V domains shown, Tested as Fab from E. coli: VH cloned into Plasmid A (CH1, His6 and Flag tags), kappa VL into Plasmid C (CL kappa); also called H:APFF G56H & L:wt) VH: QVQLVQSGAEVKKPGASVKVSCKASGYTFTSYYMHWVRQAPGQGLEWMGIINPSGHSTSYAQKFQGRVTMTRDTSTSTVYMELSSLRSEDTAVYYCAREEYAPFSAEYFQFWGQGTLVTVSS VL: not shown | – | – | – | – | – | – | – | – | 0.168 | 0.048 | 0.061 | 0.103 | 0.535 | 0.049 | 0.054 | 1.2 | 0.264 | 0.088 | 0.079 | 0.071 | ELISA absorbance at 450 nm [24]: 0.052 A450; ELISA absorbance at 450 nm [25]: 0.07 A450; ELISA absorbance at 450 nm [26]: 0.048 A450; ELISA absorbance at 450 nm [27]: 0.882 A450 |
